T1: full-length ECD of human TIGIT (His-tagged) (human)
T1 construct: also called His-tagged human TIGIT; human TIGIT extracellular domain
T1 chain: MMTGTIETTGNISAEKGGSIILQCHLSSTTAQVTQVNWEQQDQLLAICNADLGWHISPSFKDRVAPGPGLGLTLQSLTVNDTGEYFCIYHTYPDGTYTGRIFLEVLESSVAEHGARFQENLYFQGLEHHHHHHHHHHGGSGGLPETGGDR

T2: wild type full-length human TIGIT expressed on cells (human, UniProt Q495A1 22-244)
T2 construct: whole, on cells; also called human TIGIT-CHO; human TIGIT CHO cells
T2 sequence (looked up): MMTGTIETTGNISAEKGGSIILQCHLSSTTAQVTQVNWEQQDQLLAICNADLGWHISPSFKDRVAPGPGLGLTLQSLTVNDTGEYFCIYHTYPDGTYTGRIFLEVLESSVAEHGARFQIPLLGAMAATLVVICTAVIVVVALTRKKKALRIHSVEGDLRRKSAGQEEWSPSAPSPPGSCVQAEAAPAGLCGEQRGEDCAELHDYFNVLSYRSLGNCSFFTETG


Columns and labels:
[1] = target: T1, full-length ECD of human TIGIT …; test: SPR Biacore T200, Protein A capture, 1:1 model, experiment #1
Procedure: (§1) Briefly, surface plasmon resonance experiments were performed using a Biacore T200 instrument, and the association rate (kₐ), dissociation rate (kd), and dissociation constant (KD) were calculated from each experiment using a 1:1 binding model with Biacore T200 Evaluation Software.
(§2) Multispecific molecules were captured using a 30-sec injection at a flow rate of 10 μl/min to reach about 1000 resonance units (RUs). […] The sensor chip was regenerated between cycles with two 30-sec injections of 10 mM glycine, pH 1.5. Sensorgrams were evaluated and fit to a simple Langmuir 1:1 interaction model using the global data analysis option of BIAevaluation 3.0 software. Data quality was verified by visually inspecting deviations and curve fitting, and by evaluating the parameters of Rₘₐₓ, Chi2, and Tc.

[2] = target: T2, wild type full-length human TIGIT …; test: flow cytometry, blocking of CD155-Fc-PE binding to human TIGIT CHO cells, geomean of 3 experiments
Procedure: (§3) A 4× concentrated intermediate stock of each multispecific molecule was prepared in a microplate. Antibodies were serially diluted 1-to-3 in FACS buffer. […] Lastly, 25 μL of human TIGIT-CHO cells, prepared as described above, were added to each well. After a 30-minute incubation on ice, the cells were washed twice with cold FACS Buffer, and the cells were analyzed by flow cytometry (BD LSR Fortessa Flow Cytometer). The data were analyzed using the FlowJo software by sequentially gating on the FSC-A vs. SSC-A and SSC-H vs. SSC-A. Mean fluorescence intensity (MFI) values for PE were calculated, and the data were plotted by GraphPad Prism software and analyzed as described above.

[3] = target: T2, wild type full-length human TIGIT …; test: flow cytometry, blocking of human CD155-Fc-PE binding to CHO cells expressing human TIGIT
Procedure: as §3

[4] = target: T3, full-length human FcγRIIIa variant V/V expressed on CHO cells (human, UniProt P08637 17-254); test: flow cytometry, human FcγRIIIa (V/V) CHO cells, representative experiment
T3 construct: whole, on cells; also called human FcγRIIIa-CHO (variant V/V); human FcγRIIIa (V/V) CHO cells
T3 sequence (P08637 other isoform, or with tags, fused parts or gaps mutant limits assumed): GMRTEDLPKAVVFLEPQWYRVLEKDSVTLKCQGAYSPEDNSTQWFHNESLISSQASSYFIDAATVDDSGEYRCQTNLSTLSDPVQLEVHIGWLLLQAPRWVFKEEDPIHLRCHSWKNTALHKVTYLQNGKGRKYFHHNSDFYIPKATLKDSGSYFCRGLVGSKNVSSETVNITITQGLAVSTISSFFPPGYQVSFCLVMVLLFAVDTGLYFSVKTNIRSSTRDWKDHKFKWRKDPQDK
Procedure: For the antibody binding assay, a frozen aliquot of human FcγRIIIa-CHO cells (variant V/V or variant F/F) was thawed at 37° C. and then transferred to a tube containing DPBS supplemented with 0.5% Bovine Serum Albumin and 0.05% Sodium Azide (FACS Buffer). Cells were centrifuged at 300 g for five minutes. The supernatant was discarded, and cells resuspended in FACS buffer were seeded in a 96-well U-bottom tissue culture plate at a density of 2×10⁵ cells per well in 50 μL. In a separate microplate, a 2× concentrated intermediate stock of each antibody was prepared. Antibodies were serially diluted 1-to-4 in FACS buffer. A total of 11 working dilutions ranging from 60 μg/mL to 0.000057 μg/mL were prepared. Fifty microlitres of each dilution were then transferred to the microplate containing human FcγRIIIa-CHO (variant V/V or variant F/F) cells. The cells were then incubated for 45 minutes at 4° C. […] After a 30-minute incubation on ice, the cells were washed twice with cold FACS Buffer, and the cells were analyzed by flow cytometry (BD LSR Fortessa Flow Cytometer). The data were analyzed using the FlowJo software by sequentially gating the FSC-A vs. SSC-A, and SSC-H vs. SSC-A. Mean fluorescence intensity (MFI) values for PE were calculated, and the data were plotted by GraphPad Prism software.

[5] = target: T4, wild type full-length cynomolgus monkey TIGIT expressed on CHO cells (cynomolgus monkey, UniProt A0A7N9I9V4 89-312); test: flow cytometry on CHO cells expressing cynomolgus TIGIT, PE anti-human IgG Fc detection
T4 construct: whole, on cells; also called cynomolgus TIGIT-CHO cells
T4 sequence (A0A7N9I9V4 entry or part of it): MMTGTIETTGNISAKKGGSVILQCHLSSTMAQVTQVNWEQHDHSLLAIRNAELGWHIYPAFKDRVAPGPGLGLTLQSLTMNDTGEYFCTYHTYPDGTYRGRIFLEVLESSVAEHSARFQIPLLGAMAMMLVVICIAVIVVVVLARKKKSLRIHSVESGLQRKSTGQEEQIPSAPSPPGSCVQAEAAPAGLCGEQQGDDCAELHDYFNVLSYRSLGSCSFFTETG

[6] = target: T5, full-length ECD of cynomolgus monkey TIGIT (His-tagged) (cynomolgus monkey); test: SPR Biacore T200, geomean of experiments #1 and #2
T5 construct: also called His-tagged cynomolgus monkey TIGIT; cyno TIGIT extracellular domain
Procedure: as §1
as §2, with “Antibodies” for “Multispecific molecules”, “500” for “1000”

[7] = target: T1, full-length ECD of human TIGIT …; test: SPR Biacore T200, geomean of experiments #1 and #2
Procedure: as §1
as §2, with “Antibodies” for “Multispecific molecules”, “500” for “1000”

[8] = target: T4, wild type full-length cynomolgus monkey …; test: flow cytometry, blocking of CD155-Fc-PE binding to cynomolgus TIGIT CHO cells, geomean of 3 experiments
Procedure: as §3, with “1-to-4” for “1-to-3”, “cynomolgus” for “human”

| Kd [1] [pM] | koff [1] [s⁻¹] | kon [1] [M⁻¹ s⁻¹] | IC50 [2] [µg/mL] | IC50 (read off the curve) [3] [µg/mL] | Area under the curve (AUC) [4] | EC50 (read off the curve) [5] [µg/mL] | Kd [6] [pM] | Kd [7] [pM] | IC50 [8] [µg/mL] | Binder |
| --- | --- | --- | --- | --- | --- | --- | --- | --- | --- | --- |
| 584 | 0.000356 | 610000 | 0.164 | ~0.1 |  |  |  |  |  | anti-TIGIT×CD96 multispecific molecule BA127 (bispecific antibody, human IgG1, kappa, lambda, Anti-CD96 arm = BA139, anti-TIGIT arm = BA150; copies: 1 + 1 + 1 + 1) heavy 1: QVQLVQSGAEVKKPGASVKVSCKASGYTFTTYALHWVRQAPGQRLEWMGWINTGSGDTKYSQKFQGRVTITRDTSASTAYMELSSLRSEDTAVYYCARSLGVYYGMDVWGQGTLVTVSSASTKGPSVFPLAPSSKSTSGGTAALGCLVKDYFPEPVTVSWNSGALTSGVHTFPAVLQSSGLYSLSSVVTVPSSSLGTQTYICNVNHKPSNTKVDKRVEPKSCDKTHTCPPCPAPELLGGPDVFLFPPKPKDTLMISRTPEVTCVVVDVSHEDPEVKFNWYVDGVEVHNAKTKPREEQYNSTYRVVSVLTVLHQDWLNGKEYKCKVSNKALPAPIEKTISKAKGQPREPQVYTLPPSREEMTKNQVSLSCAVKGFYPSDIAVEWESNGQPENNYKTTPPVLDSDGSFFLVSKLTVDKSRWQQGNVFSCSVMHEALHNHYTQKSLSLSPG light 1: not shown heavy 2: EVQLVQSGAEVKKPGSSVKVSCKASGYTFASYGISWVRQAPGQGLEWMGGITPFFNRVDVAEKFQGRVTITADKSTSTAYIELSSLRSEDTAVYYCARDLRRGGVGDAFDIWGRGTLVTVSSASTKGPSVFPLAPSSKSTSGGTAALGCLVKDYFPEPVTVSWNSGALTSGVHTFPAVLQSSGLYSLSSVVTVPSSSLGTQTYICNVNHKPSNTKVDKRVEPKSCDKTHTCPPCPAPELLGGPDVFLFPPKPKDTLMISRTPEVTCVVVDVSHEDPEVKFNWYVDGVEVHNAKTKPREEQYNSTYRVVSVLTVLHQDWLNGKEYKCKVSNKALPLPEEKTISKAKGQPREPQVYTLPPSREEMTKNQVSLWCLVKGFYPSDIAVEWESNGQPENNYKTTPPVLDSDGSFFLYSKLTVDKSRWQQGNVFSCSVMHEALHNHYTQKSLSLSPG light 2: QSALTQPRSVSGSPGQSVTISCTGTSPDVGSHAYRSWYQQHPGKAPKLMIYEVSYRPSGVSNRFSGSKSGNTASLTISGLQAEDEADYYCSSYPPSSATVFGAGTKLTVLGQPKAAPSVTLFPPSSEELQANKATLVCLISDFYPGAVTVAWKADSSPVKAGVETTTPSKQSNNKYAASSYLSLTPEQWKSHRSYSCQVTHEGSTVEKTVAPTEC |
|  |  |  |  |  | 50100 | ~0.04 | 3900 | 540 | 0.243 | anti-TIGIT monospecific antibody BA148 (antibody, human IgG1, lambda, IgG1; also called anti-TIGIT IgG1 antibody BA148) heavy: EVQLVQSGAEVKKPGSSVKVSCKASGYTFASYGISWVRQAPGQGLEWMGGITPFFNRVDVAEKFQGRVTITADKSTSTAYIELSSLRSEDTAVYYCARDLRRGGVGDAFDIWGRGTLVTVSSASTKGPSVFPLAPSSKSTSGGTAALGCLVKDYFPEPVTVSWNSGALTSGVHTFPAVLQSSGLYSLSSVVTVPSSSLGTQTYICNVNHKPSNTKVDKRVEPKSCDKTHTCPPCPAPELLGGPDVFLFPPKPKDTLMISRTPEVTCVVVDVSHEDPEVKFNWYVDGVEVHNAKTKPREEQYNSTYRVVSVLTVLHQDWLNGKEYKCKVSNKALPLPEEKTISKAKGQPREPQVYTLPPSREEMTKNQVSLTCLVKGFYPSDIAVEWESNGQPENNYKTTPPVLDSDGSFFLYSKLTVDKSRWQQGNVFSCSVMHEALHNHYTQKSLSLSPGK light: QSALTQPRSVSGSPGQSVTISCTGTSPDVGSHAYRSWYQQHPGKAPKLMIYEVSYRPSGVSNRFSGSKSGNTASLTISGLQAEDEADYYCSSYPPSSATVFGAGTKLTVLGQPKAAPSVTLFPPSSEELQANKATLVCLISDFYPGAVTVAWKADSSPVKAGVETTTPSKQSNNKYAASSYLSLTPEQWKSHRSYSCQVTHEGSTVEKTVAPTEC |

Source: patent publication US20240141039A1 (AGENUS, published 2024)
